The results in this text go back to patent publication US20050014224A1 (Pfizer, published 2005).

First the molecules themselves.
B1: mouse GITR (glucocorticoid-induced TNF receptor) (receptor, UniProt O35714 20-228, looked up)
chain: QPSVVEEPGCGPGKVQNGSGNNTRCCSLYAPGKEDCPKERCICVTPEYHCGDPQCKICKHYPCQPGQRVESQGDIVFGFRCVACAMGTFSAGRDGHCRLWTNCSQFGFLTMFPGNKTHNAVCIPEPLPTEQYGHLTVIFLVMAACIFFLTTVQLGLHIWQLRRQHMCPRETQPFAEVQLSAEDACSFQFPEEERGEQTEEKCHLGGRWP
notes: whole, on cells; endogenous on mouse T cells and HT-2 cells in the functional assays; also called cell-surface GITR

Experiment [1] addresses mouse GITRL expressed on cells (mouse) (UniProt Q7TS55). Nature of the experiment: flow cytometry on GITRL-Cos cells, FITC donkey antihuman antibody. Background: In flow cytometry, cells or beads pass a laser one at a time.
Experiment [2] has as its target T1, control mouse IL-21 receptor fused to the FLAG epitope, expressed on Cos cells (mouse, UniProt Q9JHX3 20-529).
T1 construct: whole, on cells; also called IL-21R-Flag-Cos
Nature of the experiment: cell-cell binding by flow cytometry (PE anti-FLAG / FITC anti-GITR). An excerpt: Cell-cell interaction was detected by flow cytometry using phycoerythrin-labeled anti-Flag antibody (PE-FLAG) and fluorescein isothiocyanate (FITC)-labeled anti-GITR.

Experiment [3] deals with B1. Nature of the experiment: cell-based or functional assay.

T1 sequence (Q9JHX3 20-529): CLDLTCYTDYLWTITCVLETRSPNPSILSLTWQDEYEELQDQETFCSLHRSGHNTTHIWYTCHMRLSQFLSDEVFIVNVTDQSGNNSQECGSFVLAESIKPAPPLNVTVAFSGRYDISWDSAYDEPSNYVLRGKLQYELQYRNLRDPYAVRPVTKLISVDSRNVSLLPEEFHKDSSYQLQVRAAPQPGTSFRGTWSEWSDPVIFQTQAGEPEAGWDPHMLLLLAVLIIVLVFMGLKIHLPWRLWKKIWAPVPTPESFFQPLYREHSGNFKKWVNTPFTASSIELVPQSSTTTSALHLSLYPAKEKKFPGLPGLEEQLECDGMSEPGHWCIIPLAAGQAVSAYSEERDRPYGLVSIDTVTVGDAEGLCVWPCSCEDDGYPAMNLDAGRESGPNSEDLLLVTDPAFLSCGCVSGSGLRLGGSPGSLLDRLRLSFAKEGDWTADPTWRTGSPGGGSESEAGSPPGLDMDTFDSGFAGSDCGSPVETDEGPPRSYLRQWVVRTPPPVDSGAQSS

control human IgG (antibody) registered an FITC-Ab binding in experiment [1] of 7.9%.
Consider “recombinant GITR fused to the Fc portion of human IgG (Fc fusion)”, for which, in experiment [1], the FITC-Ab binding came out at 28.8% and the fold increase in FITC-Ab binding compared to control HIgG is 3.6 fold.
In the case of B1, the binding result in experiment [2] is reported as “no binding”.

B2: mouse GITRL expressed on cells (ligand)
chain: MEEMPLRESSPQRAERCKKSWLLCIVALLLMLLCSLGTLIYTSLKPTAIESCMVKFELSSSKWHMTSPKPHCVNTTSDGKLKILQSGTYLIYGQVIPVDKKYIKDNAPFVVQIYKKNDVLQTLMNDFQILPIGGVYELHAGDNIYLKFNSKDHIQKNNTYWGIILMPDLPFIS
With B2, the “^3H-thymidine incorporation of CD4^+CD25^+ T cells, fold increase over unmodified YB2/0 cells (˜50,000 cells)” value in experiment [3] was ~15 fold.
